Reference: paper PMC13645619

Assays:
[1] = molecular target: AP-7-168-stabilized β2AR dimer (construct PN1) (UniProt P07550); experiment: BLI
[2] = molecular target: β2-adrenergic receptor (β2AR), construct PN1, monomeric (UniProt P07550); experiment: BLI

Substance: heterotrimeric Gs (Gαsβ1γ2) (from UniProt P63092;P62873;P59768) (complex)
- Kd [1]: 3.11 µM
- Kd [2]: 1.71 µM
